Laboratory results from the DeepSol protein solubility set.

Assay: soluble on expression in E. coli; label from the status in PepcDB or PDB records

MQDLSFSTIENHLGPAKDRFFGDGFKHVEYSARHVNLTESEANASISLSYPANWSKKNDSGELIPHLSSIDALTISINLSQDILLNRFKSIDHCWVRRISIRAGKKPEEDLRNINAKITKESQGLDSQGDTNLIFGGNVGTMTVQLEFIIPAAHEVDTIKDSTEKNCYSLHFKNRTQFIDDIIFYSPLNAISKLFVANDNEPHFLPGGIEANYPNIINPVDSLVSHAQIAQALLYKLDGLTRGESNTLWMRNLNIIAENPAKRRAATRLLVTELKRANIVSLKGENWRVAEVAGHMNGITFSSSVAHLLPL
soluble on expression in E. coli: not soluble

MMGDSVIYYVEQADEPVNRADERARKTFKYFWRELFWERRRIISALDFAMVKVPFFQDGEDGEICEHMWIDDIYFDGLYIYGVLNNEPGELTNVEQGESVCVPVDDISDWMFVCNGIPYGGFTIQAMRGQMTEEERTEHDAAWGIDFGDPGQILLVYEEKEHPENLEE
soluble on expression in E. coli: not soluble

MGSDKIHHHHHHMFLKENSVDDFDKQLDDLFKTTKTSRISELSEALGVSPTTIRTWRGRNKIPASAFRKAELSIQNDSDVKTDTRISLSFYEISASAGGGALVEVEEQANLISFEPEWLNKEIGVNANDVFLMLVDGDSMYPTLKNGAMIMVNKHFNGLSDGIYVMRHEQNLLVKRLQMLPNGIIKVKSDNNLYEPWEINKENLDGTDIEIIGRVVWSGQRM
soluble on expression in E. coli: not soluble

MLMSLSRRELIKKEIFDIEEYVPGRSIEEIASTYGLKPESIIKLGSNENPLGPSPKAVKALIEAAPGANIYPSADAHELREALSKYTGFPVSNIVASGPGMDGLLDGLCRIIIEKGDEVIVPIPTFSYYELPARACGAEPVFIRRNQDFSLNPEKILEAVSPRTKIIFLCSPNNPSGNLLPEADLRKIIENTDALVFVDEAYVEFADRNLAALVNEYDNVAVGRTFSKVFGLAGLRLGYGIMPEWLTKEYLRAATPFSVSLPALRAGLAALSDTEYLNKSINLAREGREYLKEKIPFKVYPSQANFVLVDVSPLKAKKVTESLLKKGIIVRPCDSFREAGDSFIRVTVGTPEQNEKVVRAFEISKSEV
soluble on expression in E. coli: not soluble

MSVATATMPQQQNNFAQTLSQSSSTASAPAPTSAPVTTPAPGSRGAALFGGVFHRGFFSKPVERTEEENYRYLMALDR
soluble on expression in E. coli: not soluble

MAQPPDGRLTYMTQHQRVMEWLNSIDRPNGIHFLDMDAKSLLVLMNTLDRKTRSNLEKSCKILLSISRSDKPHLQQLCLHFTTTWNHDQFAEITAQFSPEHSFHSIFMSKKKSPNWITGGWSIDRQKNITSGIFQPEKLRLSATFVERTSRYIEYWLRNFQIDTLRIKVENLIPGKENSIQQSNYTGEIPPLKLKKLIIHGANNIRFINNWLDNLVPNAIDPLDDKKKIIDVEFLDVGKLDQIFHHSLMTTGKVNLTFNRVSTHFTRKTLNFVNSPMINIVARQVPSEAVNSFLKRWCRGEIIEDFQYLHLMETTQWPSQQMHMMDALSGLRYQIVDLKTDVKLRILEKQKEFPKPAQIFQITGPRPGFCAHFGNQFIFEIPKTEDIQHILVNPPISQNTFDEYERQKNRIYMELFRKRLIRLFN
soluble on expression in E. coli: not soluble

MVENIPLAEEEHNKWHQDAVSLHLEFGIPRTAAEDIVQQCDVCQENKMPSTLRGSNKRGIDHWQVDYTHYEDKIILVWVETNSGLIYAERVKGETGQEFRVQTMKWYAMFAPKSLQSDNGPAFVAESTQLLMKYLGIEHTTGIPWNPQSQALVERTHQTLKNTLEKLIPMFNAFESALAGTLITLNIKRKGGLGTSPMDIFIFNKEQQRIQQQSKSKQE
soluble on expression in E. coli: soluble

MTQIARIRDNTSERRLQAERLIGARALQEAQALRFSVFSEEFNARLKGAEQGLDIDDYDIHCSHIGVRDLNTGRLVATTRLLDHKAANTLGSFYSEEEFSLHGLAHLQGPILELGRTCVDPAYRNGGTIAVLWSELAEVLNEGGYSYLMGCASIPMQDGGIQAHAIMQRLRERYLCNEHLRAEPKNPLPTLDIPSNVICEMPPLLKAYMRLGARICGEPCWDEDFQVADVFILLKRDDLCPRYARHFKAAV
soluble on expression in E. coli: not soluble

SLAEPPAQDPAELAAAAESYLRQQLAALPGEPSITLDPLRTDRLDACEALTPFMPSGMRVRARMTVGLRCVAPRTWTVYAQATVSVPGQYYVAARQIAPGKTIEAADLTTRDGDLVALPPGVITDAAAILGMRPAHRIAAGQPIKGAGLRSAESVSRGQSVRITARGNGFVVSSEGQALDNAPPGATVQVRTASGQVVSGIVQAAGLVEIQL
soluble on expression in E. coli: not soluble

MQTKKAFLYVFNTMSDWEYGYLIAELNSGRYFKKDLAPLKVITVGANKEMITTMGGLRIKPDISLDECTLESKDLLILPGGTTWSEEIHQPILERIGQALKIGTIVAAICGATDALANMGYLDTRKHTSNNLEYTKMVCPNYKGEKFYELGPAVSDANLVTASGIAPLEFAMEVLKKIDVFTLDALHSWYNLNKTHKPEYFFQLMNSINK
soluble on expression in E. coli: not soluble

MAHQTGIHATEELKEFFAKARAGSVRLIKVVIEDEQLVLGASQEPVGRWDQDYDRAVLPLLDAQQPCYLLYRLDSQNAQGFEWLFLAWSPDNSPVRLKMLYAATRATVKKEFGGGHIKDELFGTVKDDLSFAGYQKHLSSCAAPAPLTSAERELQQIRINEVKTEISVESKHQTLQGLAFPLQPEAQRALQQLKQKMVNYIQMKLDLERETIELVHTEPTDVAQLPSRVPRDAARYHFFLYKHTHEGDPLESVVFIYSMPGYKCSIKERMLYSSCKSRLLDSVEQDFHLEIAKKIEIGDGAELTAEFLYDEVHPKQHAFKQAFAKPKGPGGKRGHKRLIRGPGENGDDS
soluble on expression in E. coli: soluble

MKEKIALITGVTGQDGSYLAEYLLNLGYEVHGLKRRSSSINTSRIDHLYEDLHSDHKRRFFLHYGDMTDSSNLIHLIATTKPTEIYNLAAQSHVKVSFETPEYTANADGIGTLRILEAMRILGLEKKTRFYQASTSELYGEVLETPQNENTPFNPRSPYAVAKMYAFYITKNYREAYNLFAVNGILFNHESRVRGETFVTRKITRAASAIAYNLTDCLYLGNLDAKRDWGHAKDYVKMMHLMLQAPIPQDYVIATGKTTSVRDFVKMSFEFIGINLEFQNTGIKEIGLIKSVDEKRANALKLNLSHLKKGQIVVRIDERYFRPTEVDLLLGDPTKAEKELDWVREYDLKELVKDMLEYDLKECQKNLYLQDGGYILRNFYE
soluble on expression in E. coli: soluble

MLVIKGVKAYTMSNIGVVEKANIIVKDGKIVDVTQELPPLEGKTVVDGEGLIALPGLIDPHTHLGVYSLEWEYGDHGTEKSDPITPHFKVIDGLDIFDPGFKDAIAGGVTTVSVEPGAPLSWASYEKTTIMPGQSAILKTNGRIIKEEAGIKIAVGGHVRKFLEELKLTPTTRMGIFAMIRMILHKAKEYLEKEDKQYDPKLEALATLLKNETVARVHAHLSRDMLSIIRLLKEFDIKNIIIEHGTEAYKISDVLKENGIPVILGPVIFPRRGVELRELSSKLAFQLYNSGMMFALTTDHPALPIQYLTLVAAACVGEGLPYEEALKSITINPAKILGIDRFVGSLEPGKDADIVLFDGDPLNPESKVMYTIIDGEVVYER
soluble on expression in E. coli: soluble

MRRTVRYILATSNPMGDLEALEKFVKLAPDTGADAIALIGNLMPKAAKSRDYAAFFRILSEAHLPTAYVPGPQDAPIWEYLREAANVELVHPEMRNVHETFTFWRGPYLVAGVGGEIADEGEPEEHEALRYPAWVAEYRLKALWELKDYPKIFLFHTMPYHKGLNEQGSHEVAHLIKTHNPLLVLVAGKGQKHEMLGASWVVVPGDLSEGEYSLLDLRARKLETGNVR
soluble on expression in E. coli: soluble

MGSDKIHHHHHHMTNVSGYHRPELHITAESGVLFAPAGVLLDDDTWHFFHQYRPSPDHGPRWAHQFAERTPFVWDICDDVLAPEGDETQVRAGSVVSNNGGVDLYFTSVVGPTSTIQLAHINNIRGTTELINEDELGLDPDVSRIGEVVGNTDGYVKFRSPCVIPGWEDQGNRDEGHSGWLMLAVTGPVEAPTVVVLDSPDGREWSITGPLSLNGLSGLESDEVLVAPRMIRLRDEVDHEIYDVLIVTIEQDGIDISGYLVGQLNGSEFDVKTPFTRIDFGHDFSRPRNTNYAETTIGYDFAHIFGLMNGVGRLDSPTEHLSWKEEGWANAISFPRIVTLQDGTVFQTPPEGLLDAIHESEAAAGWTGLCEIPSNSAVEVALKDQEGEIAATITHRHNQLVVDRSMNPNHAGDPHAIAPLTDDETDSLFIVVDGSTVEVFADGGYVSMASRVYFNNGPFSEFEVTTTGDASIIRQESHFPVDFSSVSLDIDDLTALMQFDENEPHEGPVR
soluble on expression in E. coli: not soluble

MGSDKIHHHHHHMGTKKNFVLDTNVILHDYNCLKNFQENDIYLPIVVLEELDKFKKGNEQINYNAREFVRELDLITDDSLFTHGAPLGEGLGKLFIVTGDSEAPKVHESFPARKPDHQILAVAEYLARKYPKMKNILVTKDVNLRMKARSIGILCEDYITDKVVNVDIFEKSNEVFENIEPDLIDRIYSSREGLDISEFDFKDIIRPNECFILKSDRSSVLARYNPFTHTVCRVNKTKNYGIEPRNAEQSFAFEILNDPDIKLVALTGKAGTGKTLLALAAALGKLTEYKQILLARPIVALSNKDLGFLPGDATEKVAPYMQPLFDNLNVIKRQFASNSTEVKRLEDMQKSEQLVIEALAFIRGRSLSETYCIIDEAQNLTPHEIKTIITRAGEGTKMVFTGDIQQIDQPYLDSQSNGLVYMIDRMKDQNLFAHVNLVKGERSELSELASNLM
soluble on expression in E. coli: not soluble

GSHMAAELDSLLGQEKERFQVLPGRDKMLYVAAQNERDTLWARQVLARGDYDKNARVINENEENKRISIWLDTYYPQLAYYRIHFDEPRKPVFWLSRQRNTMSKKELEVLSQKLRALMPYADSVNITLMDDVTAAGQAEAGLKQQALPYSRRNHKGGVTFVIQGALDDVEILRARQFVDSYYRTWGGRYVQFAIELKDDWLKGRSFQYGAEGYIKMSPGHWYFPSPL
soluble on expression in E. coli: soluble

PVLATQWNNYQQSRAAEAYSQLEKGVPPEVLNKAWEEAQQYNANLGDIDPGDAWTSSDDESSSAYQRYLNYLSALNETEAMGRIVLPSIKSDLPIFHGTSDRVLARGVGHLYGTDLPVGAPGELGEDGVIPPAPPEGRLS
soluble on expression in E. coli: not soluble

MHDRSYTLDDVTVAMGTYNEAAAIDTVLTDIADATDDRARVVCVDGSSDRTPEIAREHGATVIEQEPQGYGVAVAAALDAADTPVVITTDCDNTYPMERIPAFLARINEGYDVVSGDRLYWGADTMPAFNRLGNAAFAAITSLLVGERVHDTTTGMRAYRAPVIDAIDWTQNTGLSAELLIRPLCRNYDVIEEPIGYADRLGDTKLDPLEGGAEILGSILKVCAEERLPLEHHHHHH
soluble on expression in E. coli: not soluble

MSLRKNESIRLIALGGVGEIGKNMYLAEVDEDLYVIDAGLMFPENEMLGIDIVIPDVSYLVQNKDRIRGIFLTHGHEDHIGALSYVLKKVSVPVYGTKLTLALAKAKMKEQDYRGKAELIEINSDSVLEFEHSSVSFFRTNHSIPDSVGICIHTSEGSIVYTGDFKFDQAAPELYKAEIGKMAGIGDNGVLCLLSDSTDAERPGYSTSEAVVQKAMAHAFYSAKGRVIAACFASDLIQIQHIFDAAEESGRKVAVAGKSIQKVYDLAVQLGYLAVKDDILIPLSELGSFRDHEVVILTAGSQGEPIEALQKMAKRTHRQVTIQEGDTVYLAAAPIRGGEVFIYKTMDMLYRAGATVITGKNSATASSHGSQEELKFMINLMKPKHFIPVHGEYKTLKSHGKLAAECGISQDSILIPEKGDVFEIKDGRIKQSGRVPAGNVLIDGIGVGDVGNIVLRDRRLLSQDGILIVVVTLNRHDKQIAAGPEIISRGFVYVRESEKLLVQAADMVKEIVHRGSQKESFDWAAVKQDMRDELNQFFYEKTKRRPMILPIIMEVKQEGHHHHHH
soluble on expression in E. coli: soluble

MGSDKIHHHHHHMDVIKQIQQAIVYIEDRLLEPFNLQELSDYVGLSPYHLDQSFKMIVGLSPEAYARARKMTLAANDVINGATRLVDIAKKYHYANSNDFANDFSDFHGVSPIQASTKKDELQIQERLYIKLSTTERAPYPYRLEETDDISLVGYARFIDTKYLSHPFNVPDFLEDLLIDGKIKELRRYNDVSPFELFVISCPLENGLEIFVGVPSERYPAHLESRFLPGKHCAKFNLQGEIDYATNEAWYYIESSLQLTLPYERNDLYVEVYPLDISFNDPFTKIQLWIPVKQSPYDED
soluble on expression in E. coli: not soluble
